System: Escherichia coli TOP10
Experiment: shrunken log2 fold change of peptide-encoding DNA abundance (4.5 h post-induction vs induction); higher = less antimicrobial activity (less host growth inhibition)
Details: time post-induction: 4.5 h; library: site-saturation at positions 5, 18, 19, 20
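Also: peptides expressed intracellularly from a pBAD plasmid library in pooled LB shake-flask culture, induced with 0.3% L-arabinose, DNA abundance read by NGS, three biological replicates, DESeq2 with apeglm shrinkage.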

RRIRNRPPRLPRPRPRPGIHPRP and RRIRRRPPRLPRPRPRPAIFPRP are within 0.2 log units of each other in “shrunken log2 fold change” value: 0.0285 for the first, -0.0696 for the second.

Compared with RRIRIRPPRLPRPRPRPSVWPRP, RRIRKRPPRLPRPRPRPTTDPRP is higher in “shrunken log2 fold change” value: -0.221 for the first, 0.385 for the second.

Compared with RRIRFRPPRLPRPRPRPDMHPRP, RRIRLRPPRLPRPRPRPIGKPRP is lower in “shrunken log2 fold change” value: 0.191 for the first, -0.335 for the second.

RRIRNRPPRLPRPRPRPIFGPRP and RRIRFRPPRLPRPRPRPDRSPRP are within 0.2 log units of each other in “shrunken log2 fold change” value: -0.0237 for the first, 0.0602 for the second.

Compared with RRIRMRPPRLPRPRPRPAASPRP, RRIRWRPPRLPRPRPRPTNKPRP is lower in “shrunken log2 fold change” value: 1.25 for the first, -0.195 for the second.

RRIRVRPPRLPRPRPRPDHIPRP and RRIRWRPPRLPRPRPRPFMNPRP are within 0.2 log units of each other in “shrunken log2 fold change” value: -0.206 for the first, -0.11 for the second.

Compared with RRIRLRPPRLPRPRPRPQPFPRP, RRIRRRPPRLPRPRPRPLCEPRP is higher in “shrunken log2 fold change” value: -1.07 for the first, 0.443 for the second.

Going from RRIRFRPPRLPRPRPRPHHQPRP to RRIRLRPPRLPRPRPRPKKMPRP, the “shrunken log2 fold change” value rises from -0.963 to 0.126.

First: RRIRDRPPRLPRPRPRPHPRPRP
Second: RRIRGRPPRLPRPRPRPNGLPRP
The “shrunken log2 fold change” value of the first is lower: 0.081 for the first, 0.377 for the second.

Compared with RRIRRRPPRLPRPRPRPKHNPRP, RRIRVRPPRLPRPRPRPIEAPRP is lower in “shrunken log2 fold change” value: 0.396 for the first, -0.00729 for the second.

RRIRYRPPRLPRPRPRPWKAPRP and RRIRCRPPRLPRPRPRPLHDPRP are within 0.2 log units of each other in “shrunken log2 fold change” value: -0.0135 for the first, 0.0221 for the second.

First: RRIRARPPRLPRPRPRPTLWPRP
Second: RRIRKRPPRLPRPRPRPRWIPRP
The “shrunken log2 fold change” value of the first is higher: 1.05 for the first, 0.112 for the second.

RRIRSRPPRLPRPRPRPMDHPRP and RRIRDRPPRLPRPRPRPHIRPRP are within 0.2 log units of each other in “shrunken log2 fold change” value: -0.187 for the first, 0.00704 for the second.

Going from RRIRQRPPRLPRPRPRPAANPRP to RRIRRRPPRLPRPRPRPERFPRP, the “shrunken log2 fold change” value rises from 0.0666 to 0.293.

RRIRNRPPRLPRPRPRPGVSPRP and RRIRVRPPRLPRPRPRPLHYPRP are within 0.2 log units of each other in “shrunken log2 fold change” value: -0.279 for the first, -0.088 for the second.

Compared with RRIRIRPPRLPRPRPRPQSQPRP, RRIRWRPPRLPRPRPRPTLSPRP is higher in “shrunken log2 fold change” value: -0.513 for the first, 0.3 for the second.

Going from RRIRNRPPRLPRPRPRPWPGPRP to RRIRCRPPRLPRPRPRPWWTPRP, the “shrunken log2 fold change” value falls from 0.281 to -0.383.

First: RRIRNRPPRLPRPRPRPKAAPRP
Second: RRIRMRPPRLPRPRPRPMLLPRP
The “shrunken log2 fold change” value of the first is higher: 3.06 for the first, 0.0485 for the second.

Compared with RRIRPRPPRLPRPRPRPMCVPRP, RRIRPRPPRLPRPRPRPTGAPRP is higher in “shrunken log2 fold change” value: 0.076 for the first, 0.55 for the second.

RRIRSRPPRLPRPRPRPIFCPRP and RRIRRRPPRLPRPRPRPQIPPRP are within 0.2 log units of each other in “shrunken log2 fold change” value: -0.0166 for the first, 0.00964 for the second.

Compared with RRIRRRPPRLPRPRPRPIIVPRP, RRIRERPPRLPRPRPRPAYKPRP is lower in “shrunken log2 fold change” value: 0.0931 for the first, -0.21 for the second.

Compared with RRIRDRPPRLPRPRPRPLAVPRP, RRIRVRPPRLPRPRPRPLWCPRP is lower in “shrunken log2 fold change” value: 0.887 for the first, -0.303 for the second.

RRIRCRPPRLPRPRPRPSKAPRP and RRIRQRPPRLPRPRPRPDMKPRP are within 0.2 log units of each other in “shrunken log2 fold change” value: 0.0693 for the first, 0.26 for the second.

Going from RRIRWRPPRLPRPRPRPDYYPRP to RRIRFRPPRLPRPRPRPRYAPRP, the “shrunken log2 fold change” value rises from -0.218 to 0.148.

Compared with RRIRKRPPRLPRPRPRPIRNPRP, RRIRPRPPRLPRPRPRPVNWPRP is higher in “shrunken log2 fold change” value: -0.34 for the first, 0.297 for the second.

Compared with RRIRHRPPRLPRPRPRPCHPPRP, RRIRSRPPRLPRPRPRPKRKPRP is higher in “shrunken log2 fold change” value: -0.01 for the first, 0.458 for the second.

First: RRIRARPPRLPRPRPRPKNYPRP
Second: RRIRYRPPRLPRPRPRPDSHPRP
The “shrunken log2 fold change” value of the first is higher: -0.279 for the first, -0.782 for the second.

First: RRIRRRPPRLPRPRPRPMWCPRP
Second: RRIRLRPPRLPRPRPRPPVTPRP
The “shrunken log2 fold change” value of the first is lower: 0.135 for the first, 0.353 for the second.

First: RRIRWRPPRLPRPRPRPTTPPRP
Second: RRIRVRPPRLPRPRPRPAMCPRP
The “shrunken log2 fold change” value of the first is higher: 0.642 for the first, -0.178 for the second.

RRIRSRPPRLPRPRPRPASEPRP and RRIRHRPPRLPRPRPRPEDHPRP are within 0.2 log units of each other in “shrunken log2 fold change” value: -0.00793 for the first, 0.0753 for the second.

Going from RRIRIRPPRLPRPRPRPSSHPRP to RRIRHRPPRLPRPRPRPSREPRP, the “shrunken log2 fold change” value rises from -1.02 to 0.0138.

RRIRHRPPRLPRPRPRPCHRPRP and RRIRRRPPRLPRPRPRPDYEPRP are within 0.2 log units of each other in “shrunken log2 fold change” value: -0.126 for the first, -0.115 for the second.

Going from RRIRKRPPRLPRPRPRPASMPRP to RRIRVRPPRLPRPRPRPWMRPRP, the “shrunken log2 fold change” value rises from 0.116 to 0.731.

RRIRNRPPRLPRPRPRPMKQPRP and RRIRKRPPRLPRPRPRPNIQPRP are within 0.2 log units of each other in “shrunken log2 fold change” value: 0.0238 for the first, -0.0271 for the second.

First: RRIRFRPPRLPRPRPRPFGLPRP
Second: RRIRHRPPRLPRPRPRPKEEPRP
The “shrunken log2 fold change” value of the first is lower: -0.635 for the first, -0.0523 for the second.

RRIRHRPPRLPRPRPRPTRDPRP and RRIRTRPPRLPRPRPRPTCTPRP are within 0.2 log units of each other in “shrunken log2 fold change” value: 0.054 for the first, -0.094 for the second.

Compared with RRIRSRPPRLPRPRPRPERKPRP, RRIRVRPPRLPRPRPRPWERPRP is higher in “shrunken log2 fold change” value: -0.0872 for the first, 0.153 for the second.

With RRIRARPPRLPRPRPRPRAKPRP the “shrunken log2 fold change” value was 0.868.

From the supplement of paper PMC9112550, “Optimization of the antimicrobial peptide Bac7 by deep mutational scanning” (BMC Biology, 2022)
